Consider four molecules from US20230277625A1 (SIMCHA IL 18, published 2023).

The target of test [1] is T1, Human IL-18BP (amino acids 31-194), biotinylated (human, UniProt O95998 31-194, biotin on the AviTag (BirA ligase) where used biotinylated).
T1 construct: Soluble decoy receptor; also called hIL-18BP; recombinant IL-18BP
T1 sequence: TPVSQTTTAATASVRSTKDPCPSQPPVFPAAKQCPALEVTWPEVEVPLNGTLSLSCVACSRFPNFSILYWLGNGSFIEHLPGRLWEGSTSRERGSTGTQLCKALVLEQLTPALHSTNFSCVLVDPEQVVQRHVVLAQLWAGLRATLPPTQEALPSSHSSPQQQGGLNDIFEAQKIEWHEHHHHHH
The test can be described thus: on-yeast binding isotherms; 20 µM used for NBD.

In test [2] the target is T1, Human IL-18BP (amino acids 31-194), …. The test can be described thus: on-yeast binding isotherms; KD ratio relative to WT IL-18.
For test [3] the target is unchanged. The test can be described thus: on-yeast binding isotherms; KD ratio relative to WT IL-18; yeast-displayed variant; ratio normalized to WT, from the 20 µM placeholder.
The target in test [4] is T2, Human IL-18Rα ectodomain (amino acids 19-329), biotinylated (human, UniProt Q13478 19-329, biotin on the AviTag (BirA ligase)).
T2 construct: range 19-329; Secreted from insect cells (gp67 signal peptide removed); also called hIL-18Rα; hIL18Rα
T2 sequence: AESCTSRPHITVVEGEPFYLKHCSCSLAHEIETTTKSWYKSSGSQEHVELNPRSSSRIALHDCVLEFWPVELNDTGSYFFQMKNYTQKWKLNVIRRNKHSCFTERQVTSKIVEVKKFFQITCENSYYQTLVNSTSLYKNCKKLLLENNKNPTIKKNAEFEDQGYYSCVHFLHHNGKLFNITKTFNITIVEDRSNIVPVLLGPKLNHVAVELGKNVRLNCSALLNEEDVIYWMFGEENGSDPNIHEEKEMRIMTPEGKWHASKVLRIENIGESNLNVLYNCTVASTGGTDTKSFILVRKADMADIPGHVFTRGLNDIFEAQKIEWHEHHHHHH
The test can be described thus: SPR (Biacore T100), hIL-18Rα as surface ligand, 1:1 Langmuir. As to the method:
(§1) Surface Plasmon Resonance (SPR) was used to perform biophysical affinity measurements of second generation DR-IL-18 variants (binding to IL-18R vs IL-18BP). Experiments were conducted using a Biacore T100 instrument and carried out at 25° C. Biotinylated IL-18Rα or IL-18BP were immobilized onto a Biacore biotin capture chip (Series S CAP sensor chip, GE Healthcare) to yield an Rmax of ˜50 RU (IL-18Rα) or ˜10 RU (IL-18BP). Measurements were made with serial dilutions of the IL-18 variants in HEPES buffered Saline-P+ buffer (10 mM HEPES pH 7.4, 150 mM NaCl, 0.005% surfactant P20). The surface was regenerated by three 60-sec injections of regeneration buffer (3/4 (v/v) 8M guanidine hydrochloride with ¼ (v/v) 1M sodium hydroxide). Experiments were performed in multiple channels simultaneously for increased observations. All data were analyzed with the Biacore T100 evaluation software version 2.0 with a 1:1 Langmuir binding model.
On the technique in general: Surface plasmon resonance follows binding to a sensor surface in real time, without labels.

Test [5] concerns the target T1, Human IL-18BP (amino acids 31-194), …. The test can be described thus: on-yeast binding isotherms; 20 µM used for NBD; printed without '>'; yeast-displayed variant; ratio computed with 20 µM put in for NBD.
For test [6], the target named is T2, Human IL-18Rα ectodomain (amino acids …). The test can be described thus: SPR.
Test [7] has the same target. The test can be described thus: SPR, apparent KD, first value of the cell. On the procedure:
as §1

For test [8] the target is unchanged. The test can be described thus: SPR, apparent KD, second value of the cell. As to the method: as §1
Test [9] deals with T1, Human IL-18BP (amino acids 31-194), …. The test can be described thus: SPR; KD(IL-18BP)/KD(IL-18Rα) normalized to WT IL-18; SPR; ratio from the bound KD BP >10,000 nM. On the procedure:
as §1

The target in test [10] is T2, Human IL-18Rα ectodomain (amino acids …). The test can be described thus: SPR (Biacore T100), hIL-18Rα as surface ligand; Exp 1. On the procedure:
as §1

For test [11] the target is unchanged. The test can be described thus: on-yeast binding isotherm (flow cytometry), drawn summary table, IL18Rα (KD). As to the method: (§2) Individual colonies of IL-18 yeast were grown overnight at 30° C. in SDCAA liquid media and induced in SGCAA liquid media for 1 day at 20° C. IL-18 display levels on yeast were verified by flow cytometry using an anti-cMyc tag antibody (anti-myc-PE; Cell Signaling Technologies). Receptor staining with biotinylated IL-18Rα (with or without IL-18R β) or biotinylated IL-18BP was performed in PBS supplemented with 0.5% BSA and 2 mM EDTA (PBE) on ice. All analysis was performed on a Sony SA3800 flow cytometer.

Test [12] shares this target. The test can be described thus: SPR (Biacore T100), hIL-18Rα as surface ligand; Exp 2. As to the method: as §1
Test [13] deals with T3, Mouse IL-18BP (amino acids 31-194), biotinylated (mouse, UniProt Q9Z0M9 29-193, biotin on the AviTag (BirA ligase)).
T3 construct: also called mIL-18BP
T3 sequence: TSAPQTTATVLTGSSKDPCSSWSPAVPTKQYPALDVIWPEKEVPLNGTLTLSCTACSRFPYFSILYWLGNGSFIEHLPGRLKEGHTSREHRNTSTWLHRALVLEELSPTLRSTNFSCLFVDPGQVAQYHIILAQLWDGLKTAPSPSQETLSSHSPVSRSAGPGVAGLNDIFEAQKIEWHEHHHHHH
The test can be described thus: yeast binding isotherms and SPR; members per FIG. 11A legend. As to the method:
as §2
as §1, with “Experiments” for “Surface Plasmon Resonance (SPR) was used to perform biophysical affinity measurements of second generation DR-IL-18 variants (binding to IL-18R vs IL-18BP). Experiments”, “T100” for “T100 instrument”, “Saline-P+buffer” for “Saline-P+ buffer”, “1/4” for “¼”

Test [14] concerns the target T3, Mouse IL-18BP (amino acids 31-194), …. The test can be described thus: SPR (Biacore T100), IL-18BP captured via biotin, IL-18 as analyte; SPR, soluble variant. As to the method: as §1, with “Experiments” for “Surface Plasmon Resonance (SPR) was used to perform biophysical affinity measurements of second generation DR-IL-18 variants (binding to IL-18R vs IL-18BP). Experiments”, “T100” for “T100 instrument”, “Saline-P+buffer” for “Saline-P+ buffer”, “1/4” for “¼”

Test [15] addresses T4, Mouse IL-18Rα ectodomain (amino acids 19-329), biotinylated (mouse, UniProt Q61098 19-329, biotin on the AviTag (BirA ligase)).
T4 construct: range 19-329; Secreted from Expi293 cells (H7 signal peptide removed); also called mIL-18Rα; mIL18Ra
T4 sequence: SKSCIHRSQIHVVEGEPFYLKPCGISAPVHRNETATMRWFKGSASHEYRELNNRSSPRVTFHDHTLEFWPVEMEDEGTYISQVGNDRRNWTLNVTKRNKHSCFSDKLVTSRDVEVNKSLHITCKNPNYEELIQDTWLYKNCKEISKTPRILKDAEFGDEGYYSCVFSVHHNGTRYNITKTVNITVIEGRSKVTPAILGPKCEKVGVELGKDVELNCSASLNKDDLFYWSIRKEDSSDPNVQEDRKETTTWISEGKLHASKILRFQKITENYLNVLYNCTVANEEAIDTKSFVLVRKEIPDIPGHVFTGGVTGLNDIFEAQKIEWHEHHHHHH
The test can be described thus: on-yeast binding isotherm (flow cytometry). As to the method: as §2

Test [16] deals with T4, Mouse IL-18Rα ectodomain (amino acids …). The test can be described thus: SPR (Biacore T100), receptor captured via biotin, IL-18 as analyte. As to the method:
as §1, with “Experiments” for “Surface Plasmon Resonance (SPR) was used to perform biophysical affinity measurements of second generation DR-IL-18 variants (binding to IL-18R vs IL-18BP). Experiments”, “T100” for “T100 instrument”, “Saline-P+buffer” for “Saline-P+ buffer”, “1/4” for “¼”

Test [17] has as its target T3, Mouse IL-18BP (amino acids 31-194), …. The test can be described thus: SPR; KD for IL-18BP over KD for IL-18Rα; SPR; ratio of two measured KD. As to the method: as §1, with “Experiments” for “Surface Plasmon Resonance (SPR) was used to perform biophysical affinity measurements of second generation DR-IL-18 variants (binding to IL-18R vs IL-18BP). Experiments”, “T100” for “T100 instrument”, “Saline-P+buffer” for “Saline-P+ buffer”, “1/4” for “¼”

The target is the same in test [18]. The test can be described thus: SPR; KD ratio relative to WT IL-18; SPR; ratio normalized to WT. As to the method:
as §1, with “Experiments” for “Surface Plasmon Resonance (SPR) was used to perform biophysical affinity measurements of second generation DR-IL-18 variants (binding to IL-18R vs IL-18BP). Experiments”, “T100” for “T100 instrument”, “Saline-P+buffer” for “Saline-P+ buffer”, “1/4” for “¼”

Test [19] has the same target. The test can be described thus: on-yeast binding isotherms; KD ratio relative to WT IL-18; yeast-displayed variant; ratio normalized to WT, from the 10 µM placeholder. As to the method: as §2
Test [20] has the same target. The test can be described thus: on-yeast binding isotherms; 10 µM used for NBD; yeast-displayed variant; ratio computed with 10 µM put in for NBD. On the procedure:
as §2

In general, koff refers to a measure of how fast the partners let go of each other. A low value points to a long-lived complex. Broadly, the kon is the rate constant with which the complex forms.

B1: SEQ ID NO: 52 (human DR-IL-18 variant hH3) (ligand)
chain: RFGKLESRLSVIRNLNDQVLFIDQGNRPLFEDMTDSDCRDNAPRTIFIISTYKDSQPRGKAVTISVKCEKISTLSCENKIISFKEMNPPDNIKDTKSDIIFFQRDVPGHKHKMQFESSSYEGYFLACEKERDLFKLILKKEDELGDRSIMFTVQNED
notes: Engineered variant
On to B1, for which, in test [1], the “KD ratio IL-18BP/IL-18Rα” value was more than 239. The “Dissociation Constant Ratio normalized to WT IL-18” value in test [2] is more than 809.

B2: SEQ ID NO: 90 (second generation human DR-IL-18 variant 6-27) (ligand)
chain: YFGKLESKLSVIRNLNDQVLFIDQGNRPLFEDMTDSDCRDNAPRTIFIISKYSDSRARGLAVTISVKCEKISTLSCENKIISFKEMNPPDNIKDTKSDIIFFARSVPGHGRKTQFESSSYEGYFLACEKERDLFKLILKKEDELGDRSIMFTVQNED
notes: Engineered variant; recombinant soluble analyte in SPR and cell assays
In the case of B2, in test [3], the “Dissociation Constant Ratio normalized to WT IL-18” value is more than 7000. In test [4], this molecule yielded a koff of 0.00243 s⁻¹. In addition, the kon in [4] was determined as 631000 M⁻¹ s⁻¹. In addition, the “KD ratio IL-18BP/IL-18Rα” value in [5] is more than 480. For the same molecule, the Kd in [6] stood at 3.5 nM; in test [7], 3.9 nM; in test [8] it was 3.5 nM; in [10], 3.48 nM; in test [11], 42 nM; in test [12], 3.85 nM. The “IL-18 BP:Rα Dissociation Constant Ratio” value in test [9] is more than 5.86e+06.

B3: SEQ ID NO: 87 (second generation human DR-IL-18 variant 6-31) (ligand)
chain: YFGKLESKLSVIRNLNDQVLFIDQGNRPLFEDMTDSDCRDNAPRTIFIISKYGDSGARGLAVTISVKCEKISTLSCENKIISFKEMNPPDNIKDTKSDIIFFERDVPGHSGKVQFESSSYEGYFLACEKERDLFKLILKKEDELGDRSIMFTVQNED
notes: as for B2
Regarding B3, the “Dissociation Constant Ratio normalized to WT IL-18” value in test [3] is more than 7200. For the same molecule, the koff in test [4] amounted to 0.00332 s⁻¹. The molecule further showed a kon in test [4] of 218000 M⁻¹ s⁻¹. The “KD ratio IL-18BP/IL-18Rα” value in [5] is more than 490. The Kd was found to be 19.4 nM in [6]; 15.2 nM in test [7]; 19.4 nM in [8]; 19.4 nM in test [10]; 41 nM in test [11]; 15.2 nM in test [12]. Further, in test [9], the “IL-18 BP:Rα Dissociation Constant Ratio” value is more than 1.06e+06.

B4: SEQ ID NO: 62 (murine DR-IL-18 variant mC1) (ligand)
chain: NFGRLHCTTAVIRNINDQVLFVDKRQPVFEDMTDIDQSASEPQTRLIIYAYVDRRLRGKAVTLSVKDSKMSTLSCKNKIISFEEMDPPENIDDIQSDLIFFQKKVPGHNKMEFESSLYEGHFLACQKEDDAFKLILKKKDENGDKSVMFTLTNLHQS
notes: Engineered variant
As for B4, the Kd in test [13] was more than 1000 nM; in [14] it was 28700 nM; in [15], 43 nM; in test [16], 1.09 nM. For the same molecule, the “KD ratio IL-18BP/IL-18Rα” value is 26300 in [17] and more than 233 in [20]. The “Dissociation Constant Ratio normalized to WT IL-18” value in [18] was 1.44e+07; in test [19], more than 1230.
